Test results from the supplement of paper PMC10065799, “High-throughput profiling of sequence recognition by tyrosine kinases and SH2 domains using bacterial peptide display” (eLife, 2023).

Target: Hck (UniProt P08631)
Experiment: phosphorylation enrichment, bacterial display (enrichment ratio); higher = better substrate or ligand; peptides without Tyr show the background
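Further: 11-residue human phosphosite peptides and single-mutation variants displayed on the E. coli surface, counted by deep sequencing, each peptide's frequency after selection divided by its frequency in the unselected input library; frequency after pTyr selection over input frequency; kinase dosed for 20-30% of maximal phosphorylation in three min.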

Chain of Hck (P08631 whole entry, looked up): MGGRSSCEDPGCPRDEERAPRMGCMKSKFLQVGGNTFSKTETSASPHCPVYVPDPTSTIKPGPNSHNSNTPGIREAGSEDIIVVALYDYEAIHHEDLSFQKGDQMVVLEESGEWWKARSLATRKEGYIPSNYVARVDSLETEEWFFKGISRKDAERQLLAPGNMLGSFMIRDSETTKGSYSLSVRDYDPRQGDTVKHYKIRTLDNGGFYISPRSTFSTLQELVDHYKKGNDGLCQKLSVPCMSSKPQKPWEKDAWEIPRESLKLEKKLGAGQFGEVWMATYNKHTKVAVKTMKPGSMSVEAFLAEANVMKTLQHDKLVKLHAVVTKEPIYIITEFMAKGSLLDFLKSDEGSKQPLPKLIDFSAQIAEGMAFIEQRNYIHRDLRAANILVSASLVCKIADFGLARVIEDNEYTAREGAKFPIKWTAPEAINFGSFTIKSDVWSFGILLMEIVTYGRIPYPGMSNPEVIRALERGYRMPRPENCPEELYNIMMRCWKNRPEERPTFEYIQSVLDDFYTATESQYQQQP

Point of comparison: ARKCKYFKKHE [NFIX_Y40_R38C], phosphorylation enrichment 0.48. Against it:
- PDGREYIFVDP [PDGFRA_Y572_H570R_YF] — higher, 0.647
- LHRHAYPEQQQ [DPPA2_Y127_R131Q] — lower, 0.474
- QRMGTYGVRAA [ICAM2_Y260] — higher, 3.44
- RGYRVCYTPDS [PTPRF_Y450_Y450C] — higher, 0.618
- KIDAKYKKKIK [WDR19_Y1230_E1235K] — lower, 0.398
- SRWKLYPRMLR [HAO1_Y50] — lower, 0.415
- TNEFEYDELIV [TGM1_Y136_D132N_YF] — higher, 0.747
- KLQKKYGPISS [CYP17A1_Y60_Y64S] — lower, 0.375
- IQTDGDRAPEA [UHMK1_Y197_Y197D] — higher, 0.655
- LECEWYKNGVK [TTN_Y2112_P2107L] — higher, 0.931
- CRAVKYLQMVD [AVPR2_Y117_G122D] — lower, 0.456
- REGDKYVSHGA [ASS1_Y113_A111D] — higher, 0.61
- AVRVFYRKCPH [EPHB2_Y194_R199H] — higher, 0.604
- SILAVYSKDNF [PANK2_Y400_YF] — higher, 0.872
- SQINLYQDVML [ZNF806_Y33_A28S] — higher, 1.6
- GIADDYDKKKP [EIF1_Y54_L59P] — lower, 0.381
- VERRVYAEDPY [PCCA_Y401_C398R] — higher, 0.566
- MSSLPYMKVIF [SLC4A11_Y853_M856V] — higher, 0.622
- EKLQKYFRKNP [EHHADH_Y682_Q685K_YF] — higher, 0.646
- PTTKSYFPHFD [HBA1_Y43_T42S] — higher, 0.752
- HNLDFYKQTTN [FGFR3_Y648_K650Q_YF] — lower, 0.455
- LGLDEYLDKLK [FMNL2_Y352] — higher, 0.587
- IDNKMYDPKMN [ENPP1_Y280] — lower, 0.478
- LRGVIYVILRK [PMP22_Y153_S149R] — higher, 0.509
- QEGPEYWDGET [HLA-A_Y83_Q86G] — higher, 0.712
- YRQNVYIPGSN [PCDHGA1_Y895] — lower, 0.435
- DSLASYLDKVR [KRT10_Y160_R156S] — lower, 0.469
- NTVDYYDLYGG [PTPN11_Y63_G60V] — higher, 5.68
- KKFFSYAWPFF [BRDT_Y291_H288Y_YF] — higher, 0.497
- RCFVFYFSFLL [PTEN_Y177_R173C_YF] — lower, 0.426
- NGTVTYAIVAG [CDH23_Y1672] — higher, 1.09
- LRYDSYWSYCN [SLC20A2_Y433_S434W] — higher, 4.95

Target: Jak2 (UniProt O60674)
Experiment: as above

Chain of Jak2 (O60674 whole entry, looked up): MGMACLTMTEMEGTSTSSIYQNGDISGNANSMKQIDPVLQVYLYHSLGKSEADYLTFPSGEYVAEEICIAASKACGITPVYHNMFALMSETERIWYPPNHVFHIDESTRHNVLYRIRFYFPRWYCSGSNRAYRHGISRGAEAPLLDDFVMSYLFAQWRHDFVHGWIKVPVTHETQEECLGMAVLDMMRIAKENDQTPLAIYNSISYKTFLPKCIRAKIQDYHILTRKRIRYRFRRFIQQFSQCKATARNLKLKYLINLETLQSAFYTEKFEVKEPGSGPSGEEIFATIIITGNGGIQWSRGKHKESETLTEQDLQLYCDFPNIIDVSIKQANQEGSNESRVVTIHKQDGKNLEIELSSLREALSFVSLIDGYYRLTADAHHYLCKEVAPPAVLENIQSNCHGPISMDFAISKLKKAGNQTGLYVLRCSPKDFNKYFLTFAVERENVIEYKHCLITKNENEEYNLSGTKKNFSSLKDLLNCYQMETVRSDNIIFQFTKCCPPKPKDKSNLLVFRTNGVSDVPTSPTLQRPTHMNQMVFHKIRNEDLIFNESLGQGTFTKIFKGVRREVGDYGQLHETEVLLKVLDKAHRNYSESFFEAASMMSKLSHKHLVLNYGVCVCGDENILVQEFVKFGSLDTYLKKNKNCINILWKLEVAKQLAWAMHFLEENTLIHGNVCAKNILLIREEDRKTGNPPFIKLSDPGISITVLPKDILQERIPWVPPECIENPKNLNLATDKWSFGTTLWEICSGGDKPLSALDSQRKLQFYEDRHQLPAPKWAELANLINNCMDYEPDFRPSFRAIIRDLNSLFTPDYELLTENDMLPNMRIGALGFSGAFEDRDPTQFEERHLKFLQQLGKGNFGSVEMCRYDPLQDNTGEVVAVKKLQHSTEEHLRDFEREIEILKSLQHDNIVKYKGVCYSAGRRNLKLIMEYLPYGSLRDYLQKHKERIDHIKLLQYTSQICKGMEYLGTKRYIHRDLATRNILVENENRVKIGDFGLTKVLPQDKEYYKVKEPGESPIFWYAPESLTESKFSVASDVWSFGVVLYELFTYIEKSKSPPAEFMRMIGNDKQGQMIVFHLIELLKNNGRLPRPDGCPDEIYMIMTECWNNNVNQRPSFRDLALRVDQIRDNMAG

Point of comparison: TNEFEYDELIV [TGM1_Y136_D132N_YF], phosphorylation enrichment 1.37. Against it:
- ARKCKYFKKHE [NFIX_Y40_R38C] — lower, 0.596
- PDGREYIFVDP [PDGFRA_Y572_H570R_YF] — lower, 1.02
- LHRHAYPEQQQ [DPPA2_Y127_R131Q] — lower, 0.645
- QRMGTYGVRAA [ICAM2_Y260] — lower, 0.983
- RGYRVCYTPDS [PTPRF_Y450_Y450C] — higher, 1.86
- KIDAKYKKKIK [WDR19_Y1230_E1235K] — lower, 0.755
- SRWKLYPRMLR [HAO1_Y50] — lower, 0.873
- KLQKKYGPISS [CYP17A1_Y60_Y64S] — lower, 0.364
- IQTDGDRAPEA [UHMK1_Y197_Y197D] — lower, 0.96
- LECEWYKNGVK [TTN_Y2112_P2107L] — higher, 1.39
- CRAVKYLQMVD [AVPR2_Y117_G122D] — lower, 0.675
- REGDKYVSHGA [ASS1_Y113_A111D] — lower, 0.83
- AVRVFYRKCPH [EPHB2_Y194_R199H] — lower, 0.804
- SILAVYSKDNF [PANK2_Y400_YF] — lower, 0.867
- SQINLYQDVML [ZNF806_Y33_A28S] — lower, 0.847
- GIADDYDKKKP [EIF1_Y54_L59P] — lower, 0.909
- VERRVYAEDPY [PCCA_Y401_C398R] — lower, 0.663
- MSSLPYMKVIF [SLC4A11_Y853_M856V] — lower, 1.02
- EKLQKYFRKNP [EHHADH_Y682_Q685K_YF] — lower, 0.991
- PTTKSYFPHFD [HBA1_Y43_T42S] — lower, 0.558
- HNLDFYKQTTN [FGFR3_Y648_K650Q_YF] — lower, 0.793
- LGLDEYLDKLK [FMNL2_Y352] — higher, 1.71
- IDNKMYDPKMN [ENPP1_Y280] — lower, 0.385
- LRGVIYVILRK [PMP22_Y153_S149R] — lower, 1.15
- QEGPEYWDGET [HLA-A_Y83_Q86G] — higher, 1.67
- YRQNVYIPGSN [PCDHGA1_Y895] — lower, 0.576
- DSLASYLDKVR [KRT10_Y160_R156S] — lower, 0.682
- NTVDYYDLYGG [PTPN11_Y63_G60V] — higher, 1.47
- KKFFSYAWPFF [BRDT_Y291_H288Y_YF] — lower, 0.92
- RCFVFYFSFLL [PTEN_Y177_R173C_YF] — lower, 0.821
- NGTVTYAIVAG [CDH23_Y1672] — lower, 0.799
- LRYDSYWSYCN [SLC20A2_Y433_S434W] — higher, 2.4

Target: MERTK (UniProt Q12866)
Experiment: as above

Chain of MERTK (Q12866 whole entry, looked up): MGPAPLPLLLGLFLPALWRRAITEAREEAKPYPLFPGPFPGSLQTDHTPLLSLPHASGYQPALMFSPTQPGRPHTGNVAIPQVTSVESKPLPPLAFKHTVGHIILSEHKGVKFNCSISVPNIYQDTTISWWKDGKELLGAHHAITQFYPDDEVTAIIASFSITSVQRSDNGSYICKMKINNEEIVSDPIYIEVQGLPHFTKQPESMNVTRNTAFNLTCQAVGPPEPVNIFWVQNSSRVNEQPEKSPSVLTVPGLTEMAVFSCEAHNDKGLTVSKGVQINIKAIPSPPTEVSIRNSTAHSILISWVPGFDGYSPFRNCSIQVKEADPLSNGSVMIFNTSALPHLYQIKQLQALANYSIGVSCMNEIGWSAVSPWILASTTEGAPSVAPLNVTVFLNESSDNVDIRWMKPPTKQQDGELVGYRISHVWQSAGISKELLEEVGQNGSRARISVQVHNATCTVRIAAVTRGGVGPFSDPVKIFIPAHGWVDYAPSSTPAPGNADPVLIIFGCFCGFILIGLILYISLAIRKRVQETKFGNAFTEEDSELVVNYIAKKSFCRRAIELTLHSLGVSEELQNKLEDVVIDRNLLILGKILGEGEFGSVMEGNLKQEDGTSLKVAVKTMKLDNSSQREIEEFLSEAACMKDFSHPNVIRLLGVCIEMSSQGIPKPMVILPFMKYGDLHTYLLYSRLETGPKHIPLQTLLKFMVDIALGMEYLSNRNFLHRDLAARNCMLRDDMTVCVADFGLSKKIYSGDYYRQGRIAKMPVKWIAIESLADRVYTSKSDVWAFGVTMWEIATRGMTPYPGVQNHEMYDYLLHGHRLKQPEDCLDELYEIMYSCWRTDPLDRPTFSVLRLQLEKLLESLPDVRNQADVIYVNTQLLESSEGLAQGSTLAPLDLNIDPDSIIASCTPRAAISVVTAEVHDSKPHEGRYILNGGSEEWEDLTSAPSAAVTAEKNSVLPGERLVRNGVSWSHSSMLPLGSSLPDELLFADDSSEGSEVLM

Point of comparison: PDGREYIFVDP [PDGFRA_Y572_H570R_YF], phosphorylation enrichment 0.49. Against it:
- ARKCKYFKKHE [NFIX_Y40_R38C] — lower, 0.486
- LHRHAYPEQQQ [DPPA2_Y127_R131Q] — lower, 0.401
- QRMGTYGVRAA [ICAM2_Y260] — higher, 0.618
- RGYRVCYTPDS [PTPRF_Y450_Y450C] — higher, 0.634
- KIDAKYKKKIK [WDR19_Y1230_E1235K] — lower, 0.368
- SRWKLYPRMLR [HAO1_Y50] — lower, 0.447
- TNEFEYDELIV [TGM1_Y136_D132N_YF] — lower, 0.483
- KLQKKYGPISS [CYP17A1_Y60_Y64S] — lower, 0.378
- IQTDGDRAPEA [UHMK1_Y197_Y197D] — lower, 0.487
- LECEWYKNGVK [TTN_Y2112_P2107L] — higher, 0.921
- CRAVKYLQMVD [AVPR2_Y117_G122D] — lower, 0.354
- REGDKYVSHGA [ASS1_Y113_A111D] — higher, 0.744
- AVRVFYRKCPH [EPHB2_Y194_R199H] — lower, 0.485
- SILAVYSKDNF [PANK2_Y400_YF] — higher, 0.995
- SQINLYQDVML [ZNF806_Y33_A28S] — higher, 1.81
- GIADDYDKKKP [EIF1_Y54_L59P] — lower, 0.378
- VERRVYAEDPY [PCCA_Y401_C398R] — lower, 0.46
- MSSLPYMKVIF [SLC4A11_Y853_M856V] — higher, 0.507
- EKLQKYFRKNP [EHHADH_Y682_Q685K_YF] — higher, 0.567
- PTTKSYFPHFD [HBA1_Y43_T42S] — higher, 0.664
- HNLDFYKQTTN [FGFR3_Y648_K650Q_YF] — higher, 0.581
- LGLDEYLDKLK [FMNL2_Y352] — higher, 0.569
- IDNKMYDPKMN [ENPP1_Y280] — lower, 0.304
- LRGVIYVILRK [PMP22_Y153_S149R] — lower, 0.393
- QEGPEYWDGET [HLA-A_Y83_Q86G] — higher, 0.627
- YRQNVYIPGSN [PCDHGA1_Y895] — lower, 0.424
- DSLASYLDKVR [KRT10_Y160_R156S] — lower, 0.46
- NTVDYYDLYGG [PTPN11_Y63_G60V] — higher, 1.35
- KKFFSYAWPFF [BRDT_Y291_H288Y_YF] — higher, 1.58
- RCFVFYFSFLL [PTEN_Y177_R173C_YF] — lower, 0.38
- NGTVTYAIVAG [CDH23_Y1672] — higher, 2.6
- LRYDSYWSYCN [SLC20A2_Y433_S434W] — higher, 5.37

Test system: c-Abl (mouse)
Experiment: as above

Point of comparison: LRYDSYWSYCN [SLC20A2_Y433_S434W], phosphorylation enrichment 1.68. Against it:
- ARKCKYFKKHE [NFIX_Y40_R38C] — lower, 0.75
- PDGREYIFVDP [PDGFRA_Y572_H570R_YF] — lower, 0.488
- LHRHAYPEQQQ [DPPA2_Y127_R131Q] — lower, 0.716
- QRMGTYGVRAA [ICAM2_Y260] — lower, 0.637
- RGYRVCYTPDS [PTPRF_Y450_Y450C] — lower, 1.16
- KIDAKYKKKIK [WDR19_Y1230_E1235K] — lower, 0.8
- SRWKLYPRMLR [HAO1_Y50] — lower, 0.524
- TNEFEYDELIV [TGM1_Y136_D132N_YF] — lower, 0.951
- KLQKKYGPISS [CYP17A1_Y60_Y64S] — lower, 0.399
- IQTDGDRAPEA [UHMK1_Y197_Y197D] — lower, 0.79
- LECEWYKNGVK [TTN_Y2112_P2107L] — lower, 1.16
- CRAVKYLQMVD [AVPR2_Y117_G122D] — lower, 0.535
- REGDKYVSHGA [ASS1_Y113_A111D] — lower, 0.873
- AVRVFYRKCPH [EPHB2_Y194_R199H] — lower, 1.14
- SILAVYSKDNF [PANK2_Y400_YF] — lower, 0.522
- SQINLYQDVML [ZNF806_Y33_A28S] — lower, 0.752
- GIADDYDKKKP [EIF1_Y54_L59P] — lower, 0.648
- VERRVYAEDPY [PCCA_Y401_C398R] — lower, 0.566
- MSSLPYMKVIF [SLC4A11_Y853_M856V] — lower, 0.461
- EKLQKYFRKNP [EHHADH_Y682_Q685K_YF] — lower, 0.763
- PTTKSYFPHFD [HBA1_Y43_T42S] — lower, 0.501
- HNLDFYKQTTN [FGFR3_Y648_K650Q_YF] — lower, 0.683
- LGLDEYLDKLK [FMNL2_Y352] — lower, 0.982
- IDNKMYDPKMN [ENPP1_Y280] — lower, 0.41
- LRGVIYVILRK [PMP22_Y153_S149R] — lower, 0.778
- QEGPEYWDGET [HLA-A_Y83_Q86G] — lower, 0.964
- YRQNVYIPGSN [PCDHGA1_Y895] — lower, 0.531
- DSLASYLDKVR [KRT10_Y160_R156S] — lower, 0.629
- NTVDYYDLYGG [PTPN11_Y63_G60V] — lower, 0.788
- KKFFSYAWPFF [BRDT_Y291_H288Y_YF] — lower, 0.611
- RCFVFYFSFLL [PTEN_Y177_R173C_YF] — lower, 0.732
- NGTVTYAIVAG [CDH23_Y1672] — lower, 0.688
